According to patent US12421510B2, “Peptide, a complex and a method for treating cancer” (TECHNION RESEARCH & DEVELOPMENT FOUNDATION LIMITED, priority 2018, dated 2025):
Entries after “also recorded” stand apart in the source; their conditions may differ. One block for each molecule: values may come before it.

What was measured:
Type in all cases: biochemical
[1] = target: T1, p105 (Homo sapiens, UniProt P19838); test: Competition by synthetic KPC1-derived peptides of p105 ubiquitination by KPC1-Δ1-967 in reconstituted cell-free system; conditions: compared to 6 amino acids ILVRLW peptide
T1 sequence (P19838 1-968): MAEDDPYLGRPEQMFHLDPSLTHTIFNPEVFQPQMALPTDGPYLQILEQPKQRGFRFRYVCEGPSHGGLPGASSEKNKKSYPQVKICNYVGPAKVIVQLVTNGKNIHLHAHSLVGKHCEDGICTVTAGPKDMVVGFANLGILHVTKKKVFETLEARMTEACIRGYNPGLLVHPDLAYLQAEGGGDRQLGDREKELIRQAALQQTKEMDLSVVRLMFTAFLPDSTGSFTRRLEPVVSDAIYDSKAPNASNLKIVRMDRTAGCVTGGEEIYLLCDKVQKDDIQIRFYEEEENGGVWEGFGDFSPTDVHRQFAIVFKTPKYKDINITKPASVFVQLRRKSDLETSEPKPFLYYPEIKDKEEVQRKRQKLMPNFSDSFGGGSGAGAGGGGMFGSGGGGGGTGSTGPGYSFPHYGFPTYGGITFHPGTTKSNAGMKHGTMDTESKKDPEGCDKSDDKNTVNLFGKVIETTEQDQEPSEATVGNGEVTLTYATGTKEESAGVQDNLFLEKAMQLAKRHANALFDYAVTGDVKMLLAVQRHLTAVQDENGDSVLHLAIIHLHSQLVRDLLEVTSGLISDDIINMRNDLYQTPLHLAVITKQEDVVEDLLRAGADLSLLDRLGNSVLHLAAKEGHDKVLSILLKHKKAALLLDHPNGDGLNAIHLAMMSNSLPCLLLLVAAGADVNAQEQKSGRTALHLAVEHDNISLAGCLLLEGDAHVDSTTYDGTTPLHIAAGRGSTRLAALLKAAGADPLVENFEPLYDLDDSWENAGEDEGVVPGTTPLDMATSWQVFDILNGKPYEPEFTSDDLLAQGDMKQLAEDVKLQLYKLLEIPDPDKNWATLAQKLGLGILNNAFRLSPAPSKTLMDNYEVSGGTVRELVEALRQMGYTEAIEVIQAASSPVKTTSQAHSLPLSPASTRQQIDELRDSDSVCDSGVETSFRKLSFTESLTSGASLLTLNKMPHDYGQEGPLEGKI
Text: Presented is the change (in %) of unconjugated p105 remained following addition of increasing concentrations of the peptides (compared to a system to which a peptide was not added; lane 3). Amid denotes N-terminal amidation and Ac denotes C-terminal acetylation.
Presented is the change (in %) of unconjugated p105 remained following addition of increasing concentrations of the peptides (compared to a system to which a peptide was not added; lane 2).
To further confirm that 7 amino acids WILVRLW of KPC1-Δ1-967 (SEQ ID. No. 5) are involved in the interaction with p105, an experiment was designed in which the binding of p105 to the ligase was competed with a synthetic peptides derived from KPC1.

[2] = target: T1, p105; test: Processing of p105 by purified proteasome in cell free system in presence of KPC1 deleted species; conditions: 35S-labeled p105 (FIG. 7)
Text: In vitro translated and ^355-labeled p105 was processed by purified proteasome (lanes 2-7) in the presence of purified KPC1-Δ1-967-6xHIS (lanes 4-5) or KPC1-Δ1-974-6xHIS (lanes 6-7) as indicated. Lane 8 represents processing of p105 in the system that contained Fraction 2. Cell extract is fractionated over the anion-exchange resin diethylaminoethyl (DEAE)-cellulose, where ubiquitin is eluted in Fraction I, the unabsorbed, flow-through material that contains also certain E2 enzymes. Fraction II, the high salt eluate, contains E1, the remaining E2s, all the E3s, and the 26S proteasome, but not free ubiquitin. Processing is the amount of p50 produced in the reaction. All values relate to 100%, which is the set point for processing of p105 in a system that lacks proteasome and KPC1 (lane 1).

[3] = target: T1, p105; test: Ubiquitination of p105 by purified KPC1 species in cell-free conjugation assay; conditions: reconstituted cell-free system, in vitro translated 35S-labeled p105, purified Ub, E1, E2, UbAl, ATP
Text: FIGS. 4A and 4B represent western blots showing in vitro ubiquitination of p105 by mutated species of KPC1: FIG. 4A: In vitro translated and ^35S-labeled p105 was ubiquitinated by purified KPC1-Δ1-967-6xHIS (lanes 2-4) or KPC1-Δ1-974-6xHIS (lanes 5-7) in a reconstituted cell-free system. 4B) In vitro translated and ^355-labeled p105 was ubiquitinated by purified KPC1-Δ1-967-6xHIS (lanes 2,5,6), KPC1-Δ1-974-6xHIS (lane 3), KPC1-Δ967-1043-6xHIS (lane 4), WILVRLW-KPC1-Δ1-1039-6xHIS (lanes 7-8) or WILVRLW-KPC1-Δ1-1061-6xHIS (lanes 9-10) in a reconstituted cell-free system.
In order to assess if the interaction between two proteins leads to the conjugation of the substrate p105, ubiquitination reaction was performed in cell free system. The conjugation reaction was carried out in the presence of purified Ub, E1, E2, UbAl, ATP and KPC1—either wild-type or different mutant species. Samples were resolved via SDS-PAGE and the 35S-labeled p105 and its adducts were visualized using autoradiography. […] In addition, the shorter versions of KPC1 in which the 7 amino acids sequence were brought closer to RING domain, the active site of the enzyme were prepared. Both truncated KPC1 proteins that harbor the 7 amino acid sequence, WILVRLW-KPC1-Δ1-1039 (SEQ ID. No. 6) and WILVRLW-KPC1-Δ1-1061 (SEQ ID. No. 7), modified p105 (FIG. 4B, lanes 7-10).

Molecule: WILVRLW [synthetic 7 amino acids peptide, positions 968-974 of KPC1]
inhibition of ubiquitination of p105 by KPC1-Δ1-967 ([1]; non-modified peptides (FIG. 6)): inhibited ubiquitination of p105 by KPC1-Δ1-967; also recorded: inhibits ubiquitination of p105
inhibition of ubiquitination of p105 by KPC1-Δ1-967 ([1]; peptides modified by N-terminal amidation and C-terminal acetylation (FIG. 5)): inhibited ubiquitination of p105 by KPC1-Δ1-967; also recorded: inhibits ubiquitination of p105

B3: KPC1-Δ1-967-6xHIS: purified 6xHIS KPC1 deleted species that has the sequence of WILVRLW (protein)
chain: WILVRLWRGCGFGYRYTRLPHLLKTKLEDANLPSLQKPCPSTLLQQHMADLLQQGPDVAPSFLNSVLNQLNWAFSEFIGMIQEIQQAAERLERNFVDSRQLKVCATCFDLSVSLLRVLEMTITLVPEIFLDWTRPTSEMLLRRLAQLLNQVLNRVTAERNLFDRVVTLRLPGLESVDHYPILVAVTGILVQLLVRGPASEREQATSVLLADPCFQLRSICYLLGQPEPPAPGTALPAPDRKRFSLQSYADYISADELAQVEQMLAHLTSASAQAAAASLPTSEEDLCPICYAHPISAVFQPCGHKSCKACINQHLMNNKDCFFCKTTIVSVEDWEKGANTSTTSSAA
modifications: left off: small tags and cut ends
processing of p105 by purified proteasome [2]: stimulates the processing of p105 by purified proteasome

Next, values leading:

processing of p105 by purified proteasome [2]: could not stimulate processing
B1: KPC1-Δ1-974-6xHIS: purified 6xHIS KPC1 deleted species lacking the 7 amino acids responsible for binding to p105 (protein)
chain: RGCGFGYRYTRLPHLLKTKLEDANLPSLQKPCPSTLLQQHMADLLQQGPDVAPSFLNSVLNQLNWAFSEFIGMIQEIQQAAERLERNFVDSRQLKVCATCFDLSVSLLRVLEMTITLVPEIFLDWTRPTSEMLLRRLAQLLNQVLNRVTAERNLFDRVVTLRLPGLESVDHYPILVAVTGILVQLLVRGPASEREQATSVLLADPCFQLRSICYLLGQPEPPAPGTALPAPDRKRFSLQSYADYISADELAQVEQMLAHLTSASAQAAAASLPTSEEDLCPICYAHPISAVFQPCGHKSCKACINQHLMNNKDCFFCKTTIVSVEDWEKGANTSTTSSAA
modifications: left off: small tags and cut ends

ubiquitination of p105 [3]: modified p105
B2: WILVRLW-KPC1-Δ1-1061: truncated KPC1 with the 7 amino acid sequence brought closer to RING domain, SEQ ID NO: 7 (protein)
chain: WILVRLWFVDSRQLKVCATCFDLSVSLLRVLEMTITLVPEIFLDWTRPTSEMLLRRLAQLLNQVLNRVTAERNLFDRVVTLRLPGLESVDHYPILVAVTGILVQLLVRGPASEREQATSVLLADPCFQLRSICYLLGQPEPPAPGTALPAPDRKRFSLQSYADYISADELAQVEQMLAHLTSASAQAAAASLPTSEEDLCPICYAHPISAVFQPCGHKSCKACINQHLMNNKDCFFCKTTIVSVEDWEKGANTSTTSSAA
